Results as given in patent publication US20220306744A1.

Legend:
[1] = target: human PD-1 expressed on cells (CHO TREX human PD1 cell line, full-length human PD-1 sequence) (human) (UniProt Q15116); experiment: cell-based or functional assay
[2] = target: recombinant human PD-1 Fc chimera (human) (UniProt Q15116); experiment: SPR Biacore T200, single cycle kinetics, human Fc tagged PD-1 captured on Protein G, 1:1 model
[3] = target: Strep tagged recombinant human PD-1 (human) (UniProt Q15116); experiment: SPR Biacore T200, single cycle kinetics, Strep tagged human PD-1 amine coupled, 1:1 model
[4] = target: recombinant human PD-1 Fc chimera (human) (UniProt Q15116); experiment: SPR Biacore T200, single cycle kinetics, human Fc tagged PD-1 captured on Protein G, 1:1 model; second line of values in the continuation row of the name
[5] = target: recombinant human PD-1 Fc chimera (human) (UniProt Q15116); experiment: HTRF binding assay, 2 nM recombinant PD1, anti His-D2 and anti human-Fc cryptate
[6] = target: cynomolgus PD-1 recombinant protein (Acro Biosystems cat no. PD-1-C5254) (cynomolgus); experiment: as above
[7] = target: human PD-1 expressed on cells (CHO TREX human PD1 cell line, full-length human PD-1 sequence) (human) (UniProt Q15116); experiment: FMAT: inhibition of human Fc tagged human PD-L1 (400 pM) binding to CHO human PD-1 cells

Sequence of Strep tagged recombinant human PD-1 (human) (Q15116 25-167 limits assumed): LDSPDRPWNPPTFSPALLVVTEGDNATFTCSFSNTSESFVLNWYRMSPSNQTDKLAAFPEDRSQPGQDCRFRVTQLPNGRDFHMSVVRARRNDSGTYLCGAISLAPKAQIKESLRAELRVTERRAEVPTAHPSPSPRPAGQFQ
Sequence of recombinant human PD-1 Fc chimera (human) (Q15116 25-167 limits assumed, stated change not applied): as the sequence (Q15116 25-167 limits assumed) above
Sequence of human PD-1 expressed on cells (CHO TREX human PD1 cell line, full-length human PD-1 sequence) (human) (Q15116 21-288): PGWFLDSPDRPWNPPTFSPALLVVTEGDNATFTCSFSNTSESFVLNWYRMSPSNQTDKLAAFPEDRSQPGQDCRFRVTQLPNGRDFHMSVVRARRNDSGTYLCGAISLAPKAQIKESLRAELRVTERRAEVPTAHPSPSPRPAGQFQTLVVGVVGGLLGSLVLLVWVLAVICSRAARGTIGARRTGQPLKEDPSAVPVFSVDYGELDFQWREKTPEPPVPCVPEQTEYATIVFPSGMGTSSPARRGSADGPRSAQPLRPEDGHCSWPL

B1: 1.57b-4GS-MSA binder-4GS-1.1a (protein, part only; not given: Middle albumin binder and linkers, not shown: another chain or arm of the molecule; large carriers; small tags and cut ends)
VH 1: QVQLVESGGGLVKPGGSLRLSCAASGFTFSDNSMTWMRQAPGKGLEWVSYISSGGGVIFYADSVKGRFTISRDNAKNSLYLQMNSLRADDTAVYYCAREAPLRLGESPHDAFDISGQGTMVTVSS
VH 2: EVQLLESGGGSVQPGRSLRLSCAASGFTFDDHAMHWVRQAPGKGLEWVSGISWNSGSMGYADSVKDRFTISRDNAKSSLYLQMNSLRAEDTALYYCVREKGPGLTGSTADYYGLDVWGQGTMVTVSS
modifications: In the real molecule both VH are parts of one polypeptide: 1.57b, 4GS (SEQ ID NO 1105), MSA binder VH, 4GS (SEQ ID NO 1105), 1.1a. They are given here as two separate chains because the middle domain has no letters.
- EC50 (M), NFAT-Luciferase reporter gene assay [1]: 3.2e-09 M
- Kd [2]: 8.06 pM
- koff [2]: 4.23e-06 s⁻¹
- kon [2]: 524000 M⁻¹ s⁻¹

B2: 1.92b-4GS-1.39a-4GS-MSA binder (protein, part only; not given: mouse serum albumin binder, part only)
chain, part: EVQLVESGGGLVKPGGSLRLSCAASGFTFSDESMTWMRQAPGKGLEWVSYISSGGGVKFYADSVKGRFTISRDNAKNSLYLQMNSLRAEDTAVYYCAREAPLRLGESPHDAFDISGQGTMVTVSSGGGGSGGGGSGGGGSGGGGSEVQLVESGGGLVQPGRSLRLSCAASGFTFDDYALHWVRQAPGKDLEWVSGISWNGGSYGYADSVKGRFTISRDNAKNSLYLQMNSLRAEDTALYYCVREKGPGLTGSTADYYGLDAWGQGTMVTVSSGGGGSGGGGSGGGGSGGGGS
- EC50 (M), NFAT-Luciferase reporter gene assay [1]: 4.7e-09 M

B3: 1.57b-4GS-1.1a-4GS-MSA binder (protein, part only; not given: Albumin binder, second linker, His tag, not shown: another chain or arm of the molecule; large carriers; small tags and cut ends)
chain: QVQLVESGGGLVKPGGSLRLSCAASGFTFSDNSMTWMRQAPGKGLEWVSYISSGGGVIFYADSVKGRFTISRDNAKNSLYLQMNSLRADDTAVYYCAREAPLRLGESPHDAFDISGQGTMVTVSSGGGGSGGGGSGGGGSGGGGSEVQLLESGGGSVQPGRSLRLSCAASGFTFDDHAMHWVRQAPGKGLEWVSGISWNSGSMGYADSVKDRFTISRDNAKSSLYLQMNSLRAEDTALYYCVREKGPGLTGSTADYYGLDVWGQGTMVTVSS
- EC50 (M), NFAT-Luciferase reporter gene assay [1]: 2.5e-09 M
- Kd [3]: 0.134 nM
- koff [3]: 4.68e-05 s⁻¹
- kon [3]: 349000 M⁻¹ s⁻¹
- Kd [4]: 0.0166 pM
- koff [4]: 1.32e-08 s⁻¹
- kon [4]: 793000 M⁻¹ s⁻¹
- EC50 [5]: 1 nM
- EC50 [6]: 1.6 nM
- Kd [2]: 0.0517 pM
- koff [2]: 2.67e-08 s⁻¹
- kon [2]: 516000 M⁻¹ s⁻¹
- IC50 [7]: 4.4 nM
